Data as given in PMC9085972.

Molecular target: V5-HSP70 (UniProt P0DMV8)
Assay: co-IP

UniProt P0DMV8, sequence (P0DMV8 whole entry): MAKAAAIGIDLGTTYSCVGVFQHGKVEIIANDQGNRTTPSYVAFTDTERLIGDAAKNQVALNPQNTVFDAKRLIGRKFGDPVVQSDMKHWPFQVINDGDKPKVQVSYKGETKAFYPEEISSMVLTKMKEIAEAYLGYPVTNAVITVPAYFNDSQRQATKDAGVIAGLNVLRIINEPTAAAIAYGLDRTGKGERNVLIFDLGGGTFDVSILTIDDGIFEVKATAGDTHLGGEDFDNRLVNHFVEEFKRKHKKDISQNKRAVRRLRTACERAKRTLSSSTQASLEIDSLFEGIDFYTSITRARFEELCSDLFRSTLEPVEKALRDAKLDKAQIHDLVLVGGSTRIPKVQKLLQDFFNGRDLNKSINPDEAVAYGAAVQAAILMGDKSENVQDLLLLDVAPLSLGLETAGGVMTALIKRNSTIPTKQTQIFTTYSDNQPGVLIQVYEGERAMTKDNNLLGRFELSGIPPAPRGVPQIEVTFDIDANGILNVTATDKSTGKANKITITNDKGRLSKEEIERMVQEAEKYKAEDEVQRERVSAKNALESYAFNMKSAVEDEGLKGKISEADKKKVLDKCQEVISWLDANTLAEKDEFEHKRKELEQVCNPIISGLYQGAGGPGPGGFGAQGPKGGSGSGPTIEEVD

decrease of the association relative to WT BAG3: > 50%
Substance: BAG3 with L462P mutation (pCDH-L462P BAG3) (from UniProt O95817 1-575) (natural protein)
